Results as given in patent publication US7101851 (dated 2006).
Read-outs that look alike come from different tables or passages of the source. Bridges are numbered along the chain shown (N, C = ends). Where no end group is shown, it is not given here.

Assays:
[1] = target: T1, alpha subunit of the human FcεRI receptor expressed on cells (human, UniProt P12319 26-257); experiment: cell-based or functional assay
T1 sequence (looked up): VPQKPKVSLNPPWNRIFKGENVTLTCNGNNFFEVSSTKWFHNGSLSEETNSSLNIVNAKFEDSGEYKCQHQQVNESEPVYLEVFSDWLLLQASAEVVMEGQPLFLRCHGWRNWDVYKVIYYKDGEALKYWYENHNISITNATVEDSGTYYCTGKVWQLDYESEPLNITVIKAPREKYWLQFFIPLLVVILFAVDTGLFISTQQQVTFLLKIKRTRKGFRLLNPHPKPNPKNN

FcεRI-IgG [2] = target: T2, FcεRI-IgG (UniProt P12319 26-205); experiment: competitive phage ELISA: g3 peptide-phage on immobilized FcεRI-IgG, soluble FcεRI-IgG titrated
T2 construct: extracellular domain; Produced from CHO cells (Genentech); also called FcεRI-Fc; bivalent fusion protein of the extracellular domain of FcεRI and the Fc domain of IgG; not shown: Fc domain of IgG
T2 sequence (looked up): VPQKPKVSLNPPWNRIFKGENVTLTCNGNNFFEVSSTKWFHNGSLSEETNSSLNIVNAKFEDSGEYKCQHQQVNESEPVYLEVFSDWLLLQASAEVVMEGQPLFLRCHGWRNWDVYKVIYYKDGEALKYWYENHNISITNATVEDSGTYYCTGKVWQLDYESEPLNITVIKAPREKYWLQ
Procedure: (§1) This oligonucleotide was annealed with a g3 single stranded DNA phagemid template. The mutagenesis reaction was transformed into XL-1 Blue *E. coli* and plated on LB-carb+ agar plates. Individual colonies were propagated in 5 mL of 2YT broth, tetracycline, carbenicillin and VCSM13 helper phage (Stratagene). Single stranded DNA was isolated from the purified phage particles and sequenced to confirm the insertion of the phage peptide sequence. 25 mL preparations of g3 phage clones were propagated overnight and purified by PEG precipitation. After resuspension of the phage pellet in 1.0 mL of PBS, it was serially diluted 1/3 and incubated with immobilized FcεRI-IgG 2 ug/mL in a 96 well Maxisorp microtiter plate for 1 hour at room temperature. The wells were washed 10× with PBST then incubated with 100 uL of anti M13 phage HRP as described above. An OD(492) value corresponding to less than 50% binding was selected and the purified phage clones were diluted to yield this normalized level of signal. […] The mixture was then transferred to 96 well microtiter dishes containing immobilized FcεRI-IgG. After a 1-hour incubation period, the plates were washed 10 times, incubated with anti M13-HRP conjugated antibody and developed with OPD as described above.
(§2) In addition, stepwise N-terminal and C-terminal truncations of the peptide sequence were constructed. All constructs were made by designing oligonucleotides corresponding to the desired substitution or truncation, with an additional 18 bp of DNA overlapping the peptide or g3 phage DNA sequence. The phage clones were propagated overnight following infection in XL-1 Blue *E. coli*. Purified phage preparations were titered and assayed for binding to immobilized receptor. FcεRI-IgG competition assays were performed as described above.

FcεRI-IgG [3] = target: T2, FcεRI-IgG; experiment: competitive phage ELISA; relative to g3c.42
Procedure: as §1, §2

FcεRI-IgG [4] = target: T2, FcεRI-IgG; experiment: competitive phage ELISA: g3 peptide-phage on immobilized FcεRI-IgG, soluble FcεRI-IgG titrated; remark: listed apart in the source
Source text: as §1, with “Peptide sequences from g8p-fused phage clones that specifically bound FcεRI-IgG were transferred onto a g3p-display format for monovalent phage display (Bass et al., *Proteins* 8, 309–314 (1990); Lowman et al., *Biochemistry* 30, 10832–10838 (1991)). An oligonucleotide encoding for each desired peptide with additional 5' and 3' base pair that overlapped with g3 was synthesized. This” for “This”

FcεRI-IgG [5] = target: T2, FcεRI-IgG; experiment: g3 phage ELISA on immobilized FcεRI-IgG
[6] = target: T3, extracellular domain of the alpha subunit of the human FcεRI (aa 1-176), baculovirus-derived (human, UniProt P12319 26-201); experiment: competitive phage ELISA: peptide-phage with soluble FcεRI on FcεRI-coated plate
T3 construct: range 1-176; also called soluble FcεRI; baculovirus-derived FcεRI
T3 sequence (looked up): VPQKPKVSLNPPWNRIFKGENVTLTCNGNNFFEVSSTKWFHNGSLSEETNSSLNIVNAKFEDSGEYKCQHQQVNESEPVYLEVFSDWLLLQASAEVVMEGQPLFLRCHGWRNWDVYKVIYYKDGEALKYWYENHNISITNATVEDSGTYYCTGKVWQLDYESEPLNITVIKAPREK
Procedure: Phage ELISA assays were carried out as described (Lowman, 1998, supra), using Nunc Maxisorp™ plates coated with a 2 μg/mL solution of baculovirus-derived FcεRI. Peptide-phage were pre-incubated for 5–10 min with serial dilutions of receptor, then added to the receptor-coated plate. After incubation for 1 h at room temperature, the plates were washed and an anti-phage HRP-conjugated antibody (Pharmacia) was added. After further incubation for 20 min, plates were again washed and developed using the substrate OPD (Sigma). Optical density at 492 nm was read and plotted as a function of FcεRI concentration to determine an $IC50$ of inhibition by each peptide-phage variant.

[7] = target: alpha subunit of the human FcεRI receptor expressed on cells (human) (UniProt P12319); experiment: IgE inhibition assay (Table 9)
[8] = target: T1, alpha subunit of the human FcεRI …; experiment: inhibition of 125I-IgE binding to CHO cells expressing human FcεRI alpha
Procedure: To determine the ability of peptides to inhibit IgE binding to FcεRI, a cell-based binding assay was used with radiolabeled IgE. Chinese hamster ovary cells expressing the alpha subunit of the human FcεRI receptor were cultured overnight in Falcon 96 well microtiter plates at a concentration of 5 ×10^4 cells per well. The following day the cells were rinsed three times with PBS and then once with F12/DMEM. Peptide stocks were reconstituted in 100 mM Hepes buffered water, pH 7.2, at a concentration of 5 mg/mL. Working concentrations of the peptide were diluted in assay buffer (see below). 75 uL of a desired concentration of peptide was added to the top row of a separate 96 well microtiter plate and serially diluted 1:3 in 50 uL of the assay buffer (F12/DMEM, 1% BSA, 0.05% NaN_3 and 0.025 mM Hepes pH 7.2). Starting concentrations ranged from 50–500 uM. Next, 50 uL of the diluted peptide was transferred to the 96 microtiter well plate containing a monolayer of CHO FcεRI+ cells. […] Cells were
Alanine substitutions in IGE063 (SEQ ID NO:49) were used to assess sidechain contributions. The P9A (IGE070, SEQ ID NO:52) substitution had the largest impact with a >500× reduction in binding. […] Clearly the alanine substitutions at G8, P9, W10, G11 and W12 all had major impacts on binding FcεRI.

With ALCPAVCYV-NH2 (also: antiparallel disulfide-linked homodimer, interchain C3-C7' and C7-C3') [IGE089] the “IC50 of inhibition of ragweed induced histamine release (RBL-48 cells, 0.1 nM ragweed specific human IgE)” value [1] was 8 µM.

B1: g3c.1 peptide-phage (peptide)
peptide: LPRCTEGPWGWVCMAAD
modifications: not fully specified; cysteine pairing not given here
notes: Monovalent g3p phage display; not shown: fused to M13 gene-3 protein (g3p) on phage
For B1, the IC50 (FcεRI-IgG [2]) was 3 nM and the “Relative (IC50) (fold weaker)” value (FcεRI-IgG [3]) was 1 fold.

B2: g3b.6 peptide-phage (peptide)
peptide: GRAQCTEGPWGWVCMAAD
modifications: not fully specified (bridges); cysteine pairing not given here
notes: not shown: fused to M13 gene-3 protein (g3p) on phage
B2 was tested, and the IC50 (FcεRI-IgG [4]) was 16 nM.

B3: g3c.21 peptide-phage (peptide)
peptide: CTEGPWGWVCMAAD
modifications: not fully specified; cysteine pairing not given here
notes: as for B1
B3: no binding (FcεRI-IgG [5]).

B4: g3b.1 peptide-phage (peptide)
peptide: NLPRCTEGPWGWVCMAAD
modifications: disulfide 5-14 (inferred); not fully specified
notes: as for B2
Binder B4 has an IC50 (FcεRI-IgG [4]) of 13 nM.

B5: g3b.3 peptide-phage (peptide)
peptide: NLPTCTEGPWGWVCMAAD
modifications: not fully specified (bridges); cysteine pairing not given here
notes: as for B2
For B5, the IC50 (FcεRI-IgG [4]) was 7 nM.

B6: g3c.34 peptide-phage (peptide)
peptide: NLPRCTEGPWGWVCM
modifications: not fully specified; cysteine pairing not given here
notes: as for B2
With B6 the IC50 (FcεRI-IgG [2]) was 14.6 nM and the “Relative (IC50) (fold weaker)” value (FcεRI-IgG [3]) was 3 fold.

B7: IGE120-phage (IVCPRLCYVGGKALCPDVCYV displayed as a fusion to g3p of bacteriophage M13) (peptide)
peptide: IVCPRLCYVGGKALCPDVCYVGGGSGGGGSGSGDY
notes: not shown: g3p of bacteriophage M13, continuing after residue 257 of the mature protein
For B7, the “Relative IC50” value [6] was 1 fold, relative to IGE120-phage.

B8: g3c.31 peptide-phage (peptide)
peptide: NLPRCTEGPWGWVCMA
modifications: not fully specified (bridges); cysteine pairing not given here
notes: as for B1
For B8, the IC50 (FcεRI-IgG [2]) was 6.1 nM and the “Relative (IC50) (fold weaker)” value (FcεRI-IgG [3]) was 1 fold.

With NLPRCTEGPWGWVCM (disulfide 5-14 (inferred)) [peptide NLPRCTEGPWGWVCM (SEQ ID NO:27)] the “IC50 of inhibition of ragweed induced histamine release (RBL-48 cells, ragweed specific IgE)” value [1] was 13 µM.

B9: g3b.4 peptide-phage (peptide)
peptide: VMPTCTEGPWGWVCMAAD
modifications: not fully specified (bridges); cysteine pairing not given here
notes: as for B2
For B9, the IC50 (FcεRI-IgG [4]) was 7 nM.

B10: g3c.17 peptide-phage (peptide)
peptide: RCTEGPWGWVCMAAD
modifications: not fully specified; cysteine pairing not given here
notes: as for B1
B10: no binding (FcεRI-IgG [5]).

B11: g3b.5 peptide-phage (peptide)
peptide: AMAQCTEGPWGWVCMAAD
modifications: not fully specified; cysteine pairing not given here
notes: as for B2
B11 showed an IC50 (FcεRI-IgG [4]) of 10 nM.

B12: g3b.7 peptide-phage (peptide)
peptide: DLPACTEGPWGWVCMAAD
modifications: not fully specified; cysteine pairing not given here
notes: as for B2
Work on B12 yielded an IC50 (FcεRI-IgG [4]) of 9 nM.

B13: g3c.29 peptide-phage (peptide)
peptide: NLPRCTEGPWGWVCMAA
modifications: not fully specified (bridges); cysteine pairing not given here
notes: as for B1
In the case of B13, the IC50 (FcεRI-IgG [2]) is reported as 5 nM and the “Relative (IC50) (fold weaker)” value (FcεRI-IgG [3]) is reported as 1 fold.

B14: g3b.8 peptide-phage (peptide)
peptide: GRTECTEGPWGWVCMAAD
modifications: not fully specified (bridges); cysteine pairing not given here
notes: as for B2
Binder B14 has an IC50 (FcεRI-IgG [4]) of 14 nM.

B15: IGE143 (peptide)
peptide: VQCPHFCYVGGHALCADVCYVGR
modifications: disulfide (positions not given here); also: two intramolecular disulfide bonds, pairing not given here
Work on B15 yielded a fold loss in activity against its control peptide [7] of over 100 fold.

In the case of NLPRCTEGPWGWVCMAAD (disulfide 5-14 (inferred), also called optimized peptide) [synthetic peptide NLPRCTEGPWGWVCMAAD (SEQ ID NO:18)], the IC50 [8] is reported as 1000 nM, the “fold improvement over the … (SEQ ID NO:1) peptide” value [8] is reported as over 160 fold and the “fold improvement over the … (SEQ ID NO:8) peptide” value [8] is reported as 40 fold. For the same binder, the “IC50 of inhibition of ragweed induced histamine release (RBL-48 cells, ragweed specific IgE)” value [1] was 10 µM.
